How the values were obtained:
APP mutants = assay: α-CTF produced by APP variants with AD-related mutations co-expressed in HEK 293T cells; format: cell-based, human
Experimental: Plasmids were transfected in HEK 293T or N2A cells for 36-48 hours and then lysed in cell lysis buffer [10% 1M tris-HCl (pH=6.8), 4% SDS, 20% glycerol, 0.01% bromophenol blue]. Lysates were shaken at room temperature for 10 min, then boiled for 10 min, and centrifuged at 12,000×g for 10 min. Proteins were run on 8% or 12% Tris-glycine SDS-PAGE and transferred to PVDF membranes (Life Technologies). Samples were incubated overnight at 4° C. with primary antibody diluted in 5% BSA buffer (in 1×TBST). After washing 3 times with 1×TBST, they were incubated with secondary antibody diluted in 5% BSA buffer (in 1×TBST) for 2 hours at room temperature. Finally, after washing 3 times with 1×TBST, the signal was detected by ECL Western blotting substrate (Solarbio, PE0010).

[1] = system: primary cultured mouse hippocampal or cortical neurons; assay: Endogenous Aβ40 in primary cultured mouse cortical or hippocampal neurons (lentivirus, ELISA); format: cell-based; conditions: for endogenously produced Aβ40: lentivirus
Experimental: Primary cultured neurons were derived from the cortex or hippocampus of 16-day embryonic mice. The mouse cortex or hippocampus was obtained under a stereoscope, and was digested at 37° C. for 10 minutes with 20 U/ml papain (Worthington Company). After digestion, the neurons that exist in single-cell form were seeded with 100,000 neurons per well (24-well plate); the neurons were cultured in the neuron culture medium (Neurobasal medium; ThermoFisher Company) containing 2% B27 (ThermoFisher Company) and 1% penicillin/streptomycin; the fresh culture medium was changed once a week.
The experiment was performed according to the standard procedure in the ELISA analysis kit of Invitrogen Company. • a) The target protein was expressed in HEK 293T cell line. Cells were subcultured one day before transfection, and transfection was performed when the degree of cell adhesion reached 70%-80%. The transfection reagent was lipofectamine2000 (ThermoFisher). • b) 4-6 hours post transfection, medium were replaced with fresh cell culture medium. • c) 36-48 hours post transfection, the cell culture medium was collected, and then the ELISA process was performed or the cell culture medium was frozen in a −80° C. refrigerator. • d) 50 μl of standard samples and experimental samples were added to each well of the 96-well plate. • e) 50 μl of human-derived Aβ40 or Aβ42 or mouse-derived Aβ40 detection antibody was added to each well of the 96-well plate. • f) The above samples were shaken gently and placed at room temperature for 3 hours. • g) The liquid in the well were removed, and the plate was washed 4 times with 1× wash buffer. • h) 100 μl of the buffer containing 1× anti-Rabbit IgG HRP was added. • i) The plate was shaken gently and placed at room temperature for […]. • j) The liquid in the well were removed, and the well was washed 4 times with 1× wash buffer. • k) 100 μl of Stabilized Chromogen was added to each well, and the plate was placed in the dark for 30 minutes at room temperature. • l) 100 μl of Stop Solution was added to each well. • m) The absorbance at 450 nm was measured with a microplate reader. 2.4 qRT-PCR
• a) Construction of lentivirus expression plasmids, lentivirus-GFP and lentivirus-ApoE CT, which can be specifically expressed in neurons. • b) The lentivirus vectors were cotransfected with coat protein vectors (PSPAX2 and PMD2G) in HEK 293T cell line. Cells were subcultured one day before transfection, and transfection was performed when the degree of cell adhesion reached 70%-80%. […]
48 hours after transfection of HEK 293T cells and N2A cells, or 4.5 days after lentivirus infection of neurons, media and lysates were collected. Aβ40 and Aβ42 in the culture medium and cell lysates were detected by an Aβ ELISA kit as indicated in the protocol. […]

B1: ApoE CT: C-terminal fragment of ApoE, positions 216-299 of SEQ ID NO: 12; SEQ ID NO: 33 (protein)
chain: ARMEEMGSRTRDRLDEVKEQVAEVRAKLEEQAQQIRLQAEAFQARLKSWFEPLVEDMQRQWAGLVEKVQAAVGTSAAPVPSDNH
APP mutants; APP A673T
  effect on α-CTF levels, Icelandic mutation: no difference
APP mutants; APP fAD mutations near γ cleavage site (T714I, V717F, L723P)
  ability to increase α-CTF levels compared to WT APP: significantly reduced
APP mutants; HEK 293T cells
  α-CTF produced by all tested APP mutants: increased α-CTF
APP mutants; HEK 293T cells, APP mutation that cannot conduct β-cleavage
  α-CTF produced by APPM596V: able to increase α-CTF
APP mutants; fAD mutations near β- or α-cleavage site (KM670/671NL, E693K, E693A)
  effect on α-CTF levels, WT APP vs APP mutants: no statistically significant difference
[1]; mouse cortical and hippocampal neurons, lentiviral infection, vs GFP controls
  reduction in endogenous Aβ40: 30%
[1]; primary cultured mouse cortical neurons
  endogenously produced Aβ40: about 73 % of the control group
[1]; primary cultured mouse hippocampal neurons
  endogenously produced Aβ40: about 71 % of the control group
[1]; primary cultured mouse neurons, vs GFP control
  endogenously produced Aβ40: can reduce the endogenous production of Aβ40

Reference: patent publication US20250108100A1, “C-TERMINAL FRAGMENT OF APOLIPOPROTEIN E AND APPLICATION THEREOF IN INHIBITING y-SECRETASE ACTIVITY” (SYNPHATEC (SHANGHAI) BIOPHARMACEUTICAL TECHNOLOGY CO., LTD., priority 2022, published 2025)
